Columns and labels:
391-2wt-F_SC_11R = assay: ELISA, variant from culture supernatant on Ni-NTA plate;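 note: antigenic evaluation by ELISA of constructs expressed at small scale in 96-well plates after transient plasmid transfection of cells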
Protocol: (§1) Initial assessment of all constructs were performed using a 96-well microplate format for high throughput expression followed by an ELISA-based antigenic evaluation as described previously 17. […] Plasmid DNA and TrueFect-Max (United BioSystems, MD) were mixed and added to the growing cells, and the 96-well plate incubated at 37° C., 5% CO2. One day post transfection, enriched medium (high glucose DMEM plus 25% ultra-low IgG fetal bovine serum, 2× nonessential amino acids, 1× glutamine) was added to each well, and the 96-well plate was returned to the incubator for continuous culture.

391-2-DS-Cav1-BZGJ9_gyc7 = biological target: T1, 391-2-DS-Cav1-BZGJ9_gyc7; assay: as above
T1 construct: also called sc-v27
Protocol: as §1

KXint1 = biological target: T2, KXint1; assay: as above
T2 construct: also called sc-v29
Protocol: as §1

[1] = biological target: T3, sc9-10_DS-CAV1_bRSV(RB94)_Fd_pm1_fp1_ig1; assay: as above
T3 construct: also called sc-v15
Protocol: as §1

[2] = biological target: T4, RB94 site 0 hRSV bovSurf DS-Cav1-BZGJ9 Long FdPL; assay: as above
T4 construct: also called sc-v7
Protocol: as §1

[3] = biological target: T5, RB94 site 0 hRSV bovSurf DS-Cav1 Long FdPL; assay: as above
T5 construct: also called sc-v14
Protocol: as §1

[4] = biological target: T6, 391-2-site 0 hRSV DSCav1-BZGJ9 Long; assay: as above
T6 construct: also called sc-v9
Protocol: as §1

391-2-DS-Cav1-BZGJ9_gyc1 = biological target: T7, 391-2-DS-Cav1-BZGJ9_gyc1; assay: as above
T7 construct: also called sc-v16
Protocol: as §1

[5] = biological target: T8, 391-2-DS-Cav1-BZGJ9 Long K226L; assay: as above
T8 construct: also called sc-v12
Protocol: as §1

[6] = biological target: T9, sc9-10_DS-CAV1_bRSV(RB94)_Fd_hp1_fp1_ig1; assay: as above
T9 construct: also called sc-v8
Protocol: as §1

[7] = biological target: T10, RB94 site 0 hRSV DS-Cav1 Long FdPL; assay: as above
T10 construct: also called sc-v22
Protocol: as §1

391-2-DS-Cav1-BZGJ9 Long = biological target: T11, 391-2-DS-Cav1-BZGJ9 Long; assay: as above
T11 construct: also called sc-v17
Protocol: as §1

[8] = biological target: T12, sc9-10_DS-CAV1_bRSV(RB94)_Fd_hp1_fp2_ig1; assay: as above
T12 construct: also called sc-v13
Protocol: as §1

[9] = biological target: T13, sc9-10_DS-CAV1_bRSV(RB94)_Fd_hp2_ig1; assay: as above
T13 construct: also called sc-v3
Protocol: as §1

[10] = biological target: T14, 391-2 hu/bov-DS-Cav1-BZGJ9 Long; assay: as above
T14 construct: also called sc-v18
Protocol: as §1

KXlinker1 = biological target: T15, KXlinker1; assay: as above
T15 construct: also called sc-v30
Protocol: as §1

391-2-DS-Cav1-IP-5 = biological target: T16, 391-2-DS-Cav1-IP-5; assay: as above
T16 construct: also called sc-v19
Protocol: as §1

[11] = biological target: T17, sc9-10_DS-CAV1_bRSV(RB94)_Fd_hp1_ig1; assay: as above
T17 construct: also called sc-v2
Protocol: as §1

391-2-DS-Cav1-BZGJ9_gyc5 = biological target: T18, 391-2-DS-Cav1-BZGJ9_gyc5; assay: as above
T18 construct: also called sc-v10
Protocol: as §1

391-2_DS-Cav1-tzsc3 = biological target: T19, 391-2_DS-Cav1-tzsc3; assay: as above
T19 construct: also called sc-v33
Protocol: as §1

391-2-DSCav1- F-SC_7R = biological target: T20, 391-2-DSCav1- F-SC_7R; assay: as above
T20 construct: also called sc-v36
Protocol: as §1

[12] = biological target: T21, sc9-10_DS-CAV1_bRSV(RB94)_Fd_pm1_ig1; assay: as above
T21 construct: also called sc-v11
Protocol: as §1

391-2_DS-Cav1-tzsc2 = biological target: T22, 391-2_DS-Cav1-tzsc2; assay: ELISA, variant from culture supernatant on Ni-NTA plate [continued]
T22 construct: also called sc-v57
Protocol: as §1

[13] = biological target: T23, RB94 DS-CAV1 N70K S104F K117T; assay: as above
T23 construct: also called sc-v41
Protocol: as §1

391-2-DS-Cav1-BZGJ9_gyc3 = biological target: T24, 391-2-DS-Cav1-BZGJ9_gyc3; assay: as above
T24 construct: also called sc-v45
Protocol: as §1

391-2-DS-Cav1-BZGJ9_gyc6 = biological target: T25, 391-2-DS-Cav1-BZGJ9_gyc6; assay: as above
T25 construct: also called sc-v55
Protocol: as §1

KXds2 = biological target: T26, KXds2; assay: as above
T26 construct: also called sc-v50
Protocol: as §1

391-2-DS-Cav1- F-SC_11R = biological target: T27, 391-2-DS-Cav1- F-SC_11R; assay: as above
T27 construct: also called sc-v54
Protocol: as §1

[14] = biological target: T28, sc9-10_DS-CAV1_bRSV(RB94)_Fd_(hRSV-leader)_ig1; assay: as above
T28 construct: also called sc-v43
Protocol: as §1

391-2_DS-Cav1-tzsc6 = biological target: T29, 391-2_DS-Cav1-tzsc6; assay: as above
T29 construct: also called sc-v58
Protocol: as §1

391-2-DS-Cav1-BZGJ9_gyc4 = biological target: T30, 391-2-DS-Cav1-BZGJ9_gyc4; assay: as above
T30 construct: also called sc-v53
Protocol: as §1

[15] = biological target: T31, 391-2-DS-Cav1-BZGJ9_gyc10; assay: as above
T31 construct: also called sc-v60
Protocol: as §1

B1: MPE8 antibody (antibody, V domains shown)
VH: EVQLVESGGGLVKPGGSLRLSCAASGFTFSSYSMNWVRQAPGKGLEWVSSISASSSYSDYADSAKGRFTISRDNAKTSLFLQMNSLRAEDTAIYFCARARATGYSSITPYFDIWGQGTLVTVSS
VL: QSVVTQTPSVSGAPGQRVTISCTGSSSNIGAGYDVHWYQQLPGTAPKLLIYDNNNRPSGVPDRFSASKSGTSASLAITGLQAEDEADYYCQSYDRNLSGVFGTGTKVTVL
notes: also called mAb MPE8
B1 gave an ELISA binding value (391-2wt-F_SC_11R) of 0.887, an ELISA binding value (391-2-DS-Cav1-BZGJ9_gyc7) of 0.821 and an ELISA binding value (KXint1) of 0.599. The ELISA binding value [1] was 1.73, the ELISA binding value [2] was 2.14 and the ELISA binding value [3] was 1.84. It also gave an ELISA binding value [4] of 2.08, an ELISA binding value (391-2-DS-Cav1-BZGJ9_gyc1) of 1.55 and an ELISA binding value [5] of 1.78. It also gave an ELISA binding value [6] of 2.16, an ELISA binding value [7] of 1.39 and an ELISA binding value (391-2-DS-Cav1-BZGJ9 Long) of 1.45. It also gave an ELISA binding value [8] of 1.81, an ELISA binding value [9] of 2.21 and an ELISA binding value [10] of 1.32. It also gave an ELISA binding value (KXlinker1) of 0.544, an ELISA binding value (391-2-DS-Cav1-IP-5) of 1.41 and an ELISA binding value [11] of 2.18. For the same binder, the ELISA binding value (391-2-DS-Cav1-BZGJ9_gyc5) was 1.8, the ELISA binding value (391-2_DS-Cav1-tzsc3) was 0.433 and the ELISA binding value (391-2-DSCav1- F-SC_7R) was 0.312. For the same binder, the ELISA binding value [12] was 1.87, the ELISA binding value (391-2_DS-Cav1-tzsc2) was 0.109 and the ELISA binding value [13] was 0.201. For the same binder, the ELISA binding value (391-2-DS-Cav1-BZGJ9_gyc3) was 0.123, the ELISA binding value (391-2-DS-Cav1-BZGJ9_gyc6) was 0.0866 and the ELISA binding value (KXds2) was 0.143. It also gave an ELISA binding value (391-2-DS-Cav1- F-SC_11R) of 0.0668, an ELISA binding value [14] of 0.105 and an ELISA binding value (391-2_DS-Cav1-tzsc6) of 0.0583. The ELISA binding value (391-2-DS-Cav1-BZGJ9_gyc4) was 0.0901 and the ELISA binding value [15] was 0.0498.

B2: D25 antibody (antibody, V domains shown)
VH: QVQLVQSGAEVKKPGSSVMVSCQASGGPLRNYIINWLRQAPGQGPEWMGGIIPVLGTVHYAPKFQGRVTITADESTDTAYIHLISLRSEDTAMYYCATETALVVSTTYLPHYFDNWGQGTLVTVSS
VL: DIQMTQSPSSLSAAVGDRVTITCQASQDIVNYLNWYQQKPGKAPKLLIYVASNLETGVPSRFSGSGSGTDFSLTISSLQPEDVATYYCQQYDNLPLTFGGGTKVEIK
notes: also called mAb D25
Work on B2 yielded an ELISA binding value (391-2wt-F_SC_11R) of 0.739, an ELISA binding value (391-2-DS-Cav1-BZGJ9_gyc7) of 0.732 and an ELISA binding value (KXint1) of 0.416. It also gave an ELISA binding value [1] of 1.67, an ELISA binding value [2] of 2.21 and an ELISA binding value [3] of 1.7. For the same binder, the ELISA binding value [4] was 2.02, the ELISA binding value (391-2-DS-Cav1-BZGJ9_gyc1) was 1.4 and the ELISA binding value [5] was 1.92. The ELISA binding value [6] was 2.17, the ELISA binding value [7] was 1.02 and the ELISA binding value (391-2-DS-Cav1-BZGJ9 Long) was 1.3. The ELISA binding value [8] was 1.88, the ELISA binding value [9] was 2.43 and the ELISA binding value [10] was 1.39. The ELISA binding value (KXlinker1) was 0.399, the ELISA binding value (391-2-DS-Cav1-IP-5) was 1.28 and the ELISA binding value [11] was 2.44. It also gave an ELISA binding value (391-2-DS-Cav1-BZGJ9_gyc5) of 1.93, an ELISA binding value (391-2_DS-Cav1-tzsc3) of 0.383 and an ELISA binding value (391-2-DSCav1- F-SC_7R) of 0.225. The ELISA binding value [12] was 1.86, the ELISA binding value (391-2_DS-Cav1-tzsc2) was 0.0883 and the ELISA binding value [13] was 0.17. For the same binder, the ELISA binding value (391-2-DS-Cav1-BZGJ9_gyc3) was 0.164, the ELISA binding value (391-2-DS-Cav1-BZGJ9_gyc6) was 0.135 and the ELISA binding value (KXds2) was 0.109. For the same binder, the ELISA binding value (391-2-DS-Cav1- F-SC_11R) was 0.161, the ELISA binding value [14] was 0.197 and the ELISA binding value (391-2_DS-Cav1-tzsc6) was 0.138. The ELISA binding value (391-2-DS-Cav1-BZGJ9_gyc4) was 0.138 and the ELISA binding value [15] was 0.136.

— US20190330277A1 (PIRBRIGHT INSTITUTE, published 2019)
